Measurements reported in patent US20140088008A1 (Amgen, published 2014).
Values belong to the binder of their own block, whether it stands above or below them.

Key:
activin A = biological target: T1, activin A (UniProt P08476 311-426); experiment: cell-based or functional assay
T1 sequence (looked up): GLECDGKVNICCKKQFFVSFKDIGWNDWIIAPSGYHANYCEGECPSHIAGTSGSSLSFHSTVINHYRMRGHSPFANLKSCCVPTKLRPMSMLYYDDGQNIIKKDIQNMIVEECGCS

GDF-11 = biological target: T2, GDF-11 (UniProt O95390 299-407); experiment: cell-based or functional assay
T2 sequence (looked up): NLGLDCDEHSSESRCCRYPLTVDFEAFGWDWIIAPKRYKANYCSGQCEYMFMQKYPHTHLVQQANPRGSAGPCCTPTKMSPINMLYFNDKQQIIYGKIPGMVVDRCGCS

myostatin [1] = biological target: T3, myostatin (UniProt O14793 267-375, limits assumed); experiment: cell-based or functional assay
T3 sequence (looked up): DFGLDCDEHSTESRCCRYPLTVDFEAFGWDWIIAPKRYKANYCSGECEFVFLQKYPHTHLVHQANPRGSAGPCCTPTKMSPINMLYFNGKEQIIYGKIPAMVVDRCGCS

myostatin [2] = biological target: T3, myostatin; experiment: BIAcore solution competition: soluble receptor titrated against 4 nM myostatin, free myostatin captured on immobilized human ActRIIB-ECD/Fc (R&D Systems) on a CM5 chip
Protocol: Blocking assays were carried out using immobilized human ActRIIB-ECD/Fc (R&D Systems, Minneapolis, Mn.) on a CM5 chip (Biacore, Inc., Piscataway, N.J.) in the presence and absence of each of the two soluble receptors ActRIIB-ECD/Fc and ActRIIB5/Fc using the BIAcore® assay system according to the manufacturer's instructions.
100% myostatin binding signal was determined in the absence of receptor in solution. Various concentrations of the soluble receptors were diluted in sample buffer and incubated with 4 nM myostatin before being injected over the receptor surface. Since only free myostatin molecules were able to bind to the chip, a decreased binding response with increasing concentration of the receptors indicated binding of the receptors to myostatin in solution. Plotting the binding signal vs. concentration of soluble receptor, ActRIIB-ECD/Fc and ActRIIB5/Fc were calculated to have an EC₅₀ of approximately 18 nM and 7 nM respectively.

activin A neutralizing activity IC50 (nM) vs. 20 nM activin; pMARE-luc C2C12 luciferase reporter (activin A): 156 nM
GDF-11-neutralizing activity IC50 (nM) vs. 4 nM GDF-11; pMARE-luc C2C12 luciferase reporter (GDF-11): 90.6 nM
myostatin-neutralizing activity IC50 (nM) vs. 4 nM myostatin; pMARE-luc C2C12 luciferase reporter (myostatin [1]): 29.7 nM
EC50 (myostatin [2]): ~7 nM
B1: huActRIIB5/Fc (Fc fusion)
chain: SGRGEAETRECIYYNANWELERTNQSGLERCEGEQDKRLHCYASWRNSSGTIELVKKGCWLDDFNCYDRQECVATEENPQVYFCCCEGNFCNERFTHLPEAGGPEGPWASTTIPSGGPEATAAAGDQGSGALWLCLEGPAHEGGGGGGGG
notes: also called human activin type IIB5 receptor Fc fusion; not shown: human IgG1 Fc

activin A neutralizing activity IC50 (nM) vs. 20 nM activin; pMARE-luc C2C12 luciferase reporter (activin A): 340 nM
GDF-11-neutralizing activity IC50 (nM) vs. 4 nM GDF-11; pMARE-luc C2C12 luciferase reporter (GDF-11): 89.9 nM
myostatin-neutralizing activity IC50 (nM) vs. 4 nM myostatin; pMARE-luc C2C12 luciferase reporter (myostatin [1]): 51.1 nM
EC50 (myostatin [2]): ~18 nM
B2: huActRIIB-ECD/Fc (Fc fusion)
chain: SGRGEAETRECIYYNANWELERTNQSGLERCEGEQDKRLHCYASWRNSSGTIELVKKGCWLDDFNCYDRQECVATEENPQVYFCCCEGNFCNERFTHLPEAGGPEV
notes: not shown: human IgG1 Fc, fused directly (no linker)
